In the assay the test system is Human sebocytes. The experiment in a line: Neutral fat detection (Nile red staining, fluorescence intensity) in linoleic acid-induced sebocytes. The format is cell-based. The following applies: for fluorescence intensity (lipid content, Nile red): FIG. 1 D, two days, negative control about 1.0. As for the experimental part:
Human sebocytes (Cat. No. 36079-01, Celprogen, Torrance, Calif., USA) were cultured in Dulbecco's Modified Eagle Medium (DMEM): Nutrient Mixture F-12 (DMEM/F12) purchased from Thermo Fisher Scientific Limited (Barrington, Ill., USA), 10% fetal bovine serum (FBS) purchased from Gibco, Grand Island, N.Y., USA and penicillin/streptomycin (100 IU/50 […]), incubated at 37° C. in the 5% CO2 atmosphere.
Human sebocytes were implanted in 24- or 96-well plates. After 24 hours of culture, the cells were divided into a negative control group, a positive control group and an experimental group. […] The treated human sebocytes were cultured for two days. Human sebocytes were fixed with 4% formaldehyde at room temperature. After 60 minutes of fixation, the cells were washed with PBS and stained with Nile Red solution (1 μg/ml in PBS) at 37° C. for 15 minutes. Next, the cells were washed and observed under a fluorescent microscope. Fluorescence intensity is measured with fluorometer Spectra Max i3.

B1: lactoferrin (protein)
chain: APRKNVRWCTISQPEWFKCRRWQWRMKKLGAPSITCVRRAFALECIRAIAEKKADAVTLDGGMVFEAGRDPYKLRPVAAEIYGTKESPQTHYYAVAVVKKGSNFQLDQLQGRKSCHTGLGRSAGWIIPMGILRPYLSWTESLEPLQGAVAKFFSASCVPCIDRQAYPNLCQLCKGEGENQCACSSREPYFGYSGAFKCLQDGAGDVAFVKETTVFENLPEKADRDQYELLCLNNSRAPVDAFKECHLAQVPSHAVVARSVDGKEDLIWKLLSKAQEKFGKNKSRSFQLFGSPPGQRDLLFKDSALGFLRIPSKVDSALYLGSRYLTTLKNLRETAEEVKARYTRVVWCAVGPEEQKKCQQWSQQSGQNVTCATASTTDDCIVLVLKGEADALNLDGGYIYTAGKCGLVPVLAENRKSSKHSSLDCVLRPTEGYLAVAVVKKANEGLTWNSLKDKKSCHTAVDRTAGWNIPMGLIVNQTGSCAFDEFFSQSCAPGADPKSRLCALCAGDDQGLDKCVPNSKEKYYGYTGAFRCLAEDVGDVAFVKNDTVWENTNGESTADWAKNLNREDFRLLCLDGTRKPVTEAQSCHLAVAPNHAVVSRSDRAAHVKQVLLHQQALFGKNGKNCPDKFCLFKSETKNLLFNDNTECLAKLGGRPTYEEYLGTEYVTAIANLKKCSTSPLLEACAFLTR
modifications: bovine lactoferrin
For B1, the “lipid content reduced compared with positive control group (LA)” value (FIG. 1, 0.1 mM LA + 100 to 400 μg/mL lactoferrin) was 25%. Also, the “fluorescence intensity (lipid content, Nile red)” value is “about 1.5” (0.1 mM LA + 100 μg/mL lactoferrin), “about 1.5” (0.1 mM LA + 200 μg/mL lactoferrin) and “about 1.5” (0.1 mM LA + 400 μg/mL lactoferrin). For the setting “FIGS. 1-4, lactoferrin 100-400 μg/mL, peptides 25-100 μg/mL”, the “concentration dependence of inhibition of LA-induced lipid content” value is on record as “dose-dependent manner”.

Values taken from US20220362348A1, “LACTOFERRIN, DERIVED PEPTIDE THEREOF AND METHOD THEREOF FOR INHIBITING AND/OR ALLEVIATING LIPID SYNTHESIS” (RENORIGIN INNOVATION INSTITUTE CO., LTD., priority 2021, published 2022).
